Measurements reported in the supplement of paper PMC7877785.
± gives the uncertainty stated by the source.

Experiment: self-splicing fitness, log relative to wild type (ln ratio); higher = more splicing; Tetrahymena group I intron in knt gene, E. coli kanamycin selection, DiMSum; sequences stand for … in CUCUCU…GGAGGGAAAAGUUAUCAGGCAUGCACCUGGUAGCUAGUCUUUAAACCAAUAGAUUGCAUCGGUUUAAAAGGCAAGACCGUCAAAUUGCGGGAAAGGGGUCAACAGCCGUUCAGUACCAAGUCUCAGGGGAAACUUUGAGAUGGCCUUGCAAAGGGUAUGGUAAUAAGCUGACGGACAUGGUCCUAACCACGCAGCCAAGUCCUAAGUCAACAGAUCUUCUGUUGAUAUGGAUGCAGUUCACAGACUAAAUGUCGGUCGGGGAAGAUGUAUUCUUCUCAUAAGAUAUAGUCGGACCUCUCCUUAAUGGGAGCUAGCGGAUGAAGUGAUGCAACACUGGAGCCGCUGGGAACUAAUUUGUAUGCGAAAGUAUAUUGAUUAGUUUUGGAGUACUCGUGGUCG
Outline: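 The eight P1ex-region nucleotides of an intron in the knt kanamycin-resistance gene on pET-22b(+) were all randomised and the library put into E. coli BL21(DE3). Six replicate transformations were grown overnight at 37°C or 30°C on LB agar with or without 25 μg/mL kanamycin, together with 100 μg/mL carbenicillin, 50 μM IPTG and 0.2% rhamnose. Colonies were pooled and amplicon-sequenced on an Illumina HiSeq 2500. Fitness from DiMSum is the error-weighted combination of wild-type-normalised replicate fold changes, kanamycin over none.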

Sequence	self-splicing fitness (ln) (30 °C)	self-splicing fitness (ln) (37 °C)
ACGUAGCAAUAUUACGUUUU	-2.63 ± 0.12	-1.15 ± 0.12
AUGUAGCAAUAUUACGUGUC	-3.79 ± 0.31	-2.81 ± 0.26
AGAAAGCAAUAUUACGAGGU	-3.59 ± 0.26	-1.93 ± 0.23
UCAUAGCAAUAUUACGCUUA	–	-1.21 ± 0.26
UCUAAGCAAUAUUACGCAGC	-1.83 ± 0.23	-2.07 ± 0.31
GCGCAGCAAUAUUACGUUAC	-2.71 ± 0.14	-1.12 ± 0.14
GCCUAGCAAUAUUACGGCAC	-1.31 ± 0.17	-0.195 ± 0.14
AGCAAGCAAUAUUACGUAGG	-2.75 ± 0.1	-2.1 ± 0.12
GGUCAGCAAUAUUACGCGGG	–	-2.61 ± 0.28
CGAGAGCAAUAUUACGGGGA	-3.24 ± 0.47	-1.74 ± 0.31
CCUUAGCAAUAUUACGCCAU	-2.87 ± 0.48	-1.57 ± 0.29
UACGAGCAAUAUUACGAUCG	-0.594 ± 0.1	-0.663 ± 0.13
UGGUAGCAAUAUUACGGAUU	-3.77 ± 0.4	-0.91 ± 0.31
CCCGAGCAAUAUUACGGGUG	-3.42 ± 0.18	-1.7 ± 0.12
GAUUAGCAAUAUUACGCAGU	-3.28 ± 0.32	-1.44 ± 0.19
GGGCAGCAAUAUUACGAGAA	-3.05 ± 0.47	-1.87 ± 0.3
UGGGAGCAAUAUUACGUCCA	-2.03 ± 0.12	-1.13 ± 0.11
AGAAAGCAAUAUUACGUACA	-0.839 ± 0.075	-0.379 ± 0.1
AAUUAGCAAUAUUACGCUUA	-0.993 ± 0.12	0.247 ± 0.14
CUCGAGCAAUAUUACGCAUG	-3.27 ± 0.2	-3.58 ± 0.42
GAAUAGCAAUAUUACGUUUU	-3.38 ± 0.16	-0.859 ± 0.11
UUUCAGCAAUAUUACGACGA	-0.00347 ± 0.1	0.236 ± 0.12
CGGGAGCAAUAUUACGUCAA	-2.14 ± 0.19	-2.79 ± 0.38
GGCAAGCAAUAUUACGGACG	-0.442 ± 0.089	-0.416 ± 0.086
GCCCAGCAAUAUUACGAAAA	-1.7 ± 0.1	-1.87 ± 0.12

Sequence	self-splicing fitness (ln) (30 °C)	self-splicing fitness (ln) (37 °C)
AUAUAGCAAUAUUACGAAGA	-2.16 ± 0.4	-1.98 ± 0.47
GCGGAGCAAUAUUACGCAAG	-2.73 ± 0.38	-2.3 ± 0.31
GUACAGCAAUAUUACGGCUC	0.189 ± 0.083	1.05 ± 0.097
GAGGAGCAAUAUUACGACGC	-0.403 ± 0.15	0.209 ± 0.14
ACUAAGCAAUAUUACGAAGG	-1.51 ± 0.087	-0.966 ± 0.12
CCUCAGCAAUAUUACGUAGU	-2.16 ± 0.066	-0.762 ± 0.075
CCUCAGCAAUAUUACGUUUG	-1.46 ± 0.093	-2.15 ± 0.14
CAGUAGCAAUAUUACGUCGU	-2.6 ± 0.17	-2.44 ± 0.17
AUCUAGCAAUAUUACGCCAU	-2.72 ± 0.2	-1.05 ± 0.15
AAUAAGCAAUAUUACGGCGA	-0.134 ± 0.079	-0.274 ± 0.1
ACCGAGCAAUAUUACGCUCA	-1.14 ± 0.13	-0.577 ± 0.2
GCGCAGCAAUAUUACGGUAU	-0.825 ± 0.039	-0.0516 ± 0.054
UAUAAGCAAUAUUACGCACG	-0.779 ± 0.16	-0.566 ± 0.17
AACGAGCAAUAUUACGGUUA	-1.84 ± 0.18	-0.413 ± 0.15
AGGCAGCAAUAUUACGCUAU	-1.45 ± 0.088	-0.464 ± 0.092
UGGAAGCAAUAUUACGCGUU	-4.13 ± 0.18	-3.03 ± 0.26
CCAUAGCAAUAUUACGGUCA	-3 ± 0.16	-1.44 ± 0.2
GCAUAGCAAUAUUACGGACA	-1.74 ± 0.15	-0.572 ± 0.14
CCGGAGCAAUAUUACGCCCG	-1.86 ± 0.41	–
UGGUAGCAAUAUUACGUAAU	-1.61 ± 0.19	-0.903 ± 0.16
GGCUAGCAAUAUUACGAACA	-1.01 ± 0.15	-0.682 ± 0.15
GCCAAGCAAUAUUACGGUGC	-3.11 ± 0.24	-2.14 ± 0.21
CACGAGCAAUAUUACGACCU	-2.18 ± 0.17	-2.27 ± 0.27
AUGAAGCAAUAUUACGAAUG	-1.25 ± 0.095	-0.913 ± 0.1
GAUUAGCAAUAUUACGGCAU	-0.835 ± 0.11	0.24 ± 0.12

Sequence	self-splicing fitness (ln) (30 °C)	self-splicing fitness (ln) (37 °C)
AACCAGCAAUAUUACGUAAG	-1.28 ± 0.059	-0.259 ± 0.072
CGCAAGCAAUAUUACGGUUA	-2.32 ± 0.14	-0.121 ± 0.085
CUUCAGCAAUAUUACGCUGU	-3.69 ± 0.31	-2.47 ± 0.42
ACAAAGCAAUAUUACGGAUU	-2.49 ± 0.085	-0.946 ± 0.081
ACUCAGCAAUAUUACGUGUA	-1.39 ± 0.1	-0.266 ± 0.096
CUGUAGCAAUAUUACGUACU	-2.61 ± 0.11	-1.3 ± 0.13
ACUGAGCAAUAUUACGAAUG	-3.69 ± 0.4	-1.89 ± 0.22
ACGCAGCAAUAUUACGGGGA	-2.28 ± 0.091	-2.14 ± 0.1
GGUGAGCAAUAUUACGUCUC	-1.28 ± 0.19	-1.61 ± 0.22
AAGGAGCAAUAUUACGUGGC	-3.79 ± 0.19	-2.37 ± 0.2
UCAUAGCAAUAUUACGGUUA	-1.37 ± 0.14	-0.36 ± 0.11
UGUUAGCAAUAUUACGUACC	-0.945 ± 0.14	0.399 ± 0.17
GGAGAGCAAUAUUACGGCUU	-0.815 ± 0.2	-2.01 ± 0.3
GGCUAGCAAUAUUACGGUUC	-1.31 ± 0.056	-0.331 ± 0.072
AGGCAGCAAUAUUACGCAAA	-1.43 ± 0.15	-1 ± 0.2
CGGUAGCAAUAUUACGGGUG	-0.483 ± 0.068	0.146 ± 0.077
GGGAAGCAAUAUUACGGGAG	-3.28 ± 0.32	-2.09 ± 0.27
CUUUAGCAAUAUUACGAUGU	-3.36 ± 0.28	-2.36 ± 0.24
CGUAAGCAAUAUUACGCGCA	-1.3 ± 0.16	-0.345 ± 0.14
CUCUAGCAAUAUUACGCCAC	-2.66 ± 0.28	–
CGAGAGCAAUAUUACGACCA	-2.78 ± 0.37	–
AUAUAGCAAUAUUACGCUAU	-2.98 ± 0.27	-0.715 ± 0.24
UGAGAGCAAUAUUACGGUAC	–	-2 ± 0.38
CAACAGCAAUAUUACGGCCU	-3.63 ± 0.16	-1.3 ± 0.12
UAUGAGCAAUAUUACGGUAU	-4.03 ± 0.42	-1.06 ± 0.24

Sequence	self-splicing fitness (ln) (30 °C)	self-splicing fitness (ln) (37 °C)
GGCGAGCAAUAUUACGAACC	-2.56 ± 0.071	-1.11 ± 0.085
GGCUAGCAAUAUUACGCGCC	-3.69 ± 0.34	-2.17 ± 0.38
AGCGAGCAAUAUUACGAUGU	-2.99 ± 0.19	-1.46 ± 0.18
UGAAAGCAAUAUUACGCAGC	–	-1.62 ± 0.22
CAUAAGCAAUAUUACGCUGU	-3.79 ± 0.27	-1.05 ± 0.15
GCCAAGCAAUAUUACGACCC	-0.14 ± 0.14	-0.813 ± 0.17
AUCUAGCAAUAUUACGAGUA	-2.58 ± 0.27	-1.53 ± 0.18
CAGGAGCAAUAUUACGGGCU	-4.13 ± 0.39	-2.17 ± 0.34
UUAAAGCAAUAUUACGACGG	-0.186 ± 0.091	0.75 ± 0.15
ACCAAGCAAUAUUACGUAAU	-2.74 ± 0.098	-0.681 ± 0.078
GUUGAGCAAUAUUACGGCGA	-2.81 ± 0.23	-2.44 ± 0.2
CCACAGCAAUAUUACGAGGC	-3.21 ± 0.14	-2.37 ± 0.21
CAGAAGCAAUAUUACGGGUU	-3.12 ± 0.24	-3.23 ± 0.21
UGGAAGCAAUAUUACGCGAU	-2.02 ± 0.14	-2.12 ± 0.25
CUUAAGCAAUAUUACGUCAC	-3.97 ± 0.29	-2.91 ± 0.3
ACGCAGCAAUAUUACGUGUG	-2.86 ± 0.11	-2.31 ± 0.12
GGCCAGCAAUAUUACGCGUG	-1.22 ± 0.079	-0.385 ± 0.092
UACGAGCAAUAUUACGUCGG	-3.5 ± 0.23	-1.38 ± 0.15
GCUGAGCAAUAUUACGGCUC	–	-1.71 ± 0.25
CUCUAGCAAUAUUACGCGGG	-3.39 ± 0.18	-1.41 ± 0.14
GAGUAGCAAUAUUACGGGAC	-3.17 ± 0.35	-1.41 ± 0.22
AAUGAGCAAUAUUACGUUCU	-2 ± 0.085	-1.21 ± 0.092
